Experimental data reported in publication PMC4922585.

Experiments:
[1] = target: Wild-type TF-FVIIa complex on THP-1 cells (UniProt P13726)
[2] = target: TF G164A-FVIIa complex on THP-1 cells (UniProt P13726)
[3] = target: TF S160A-FVIIa complex on THP-1 cells (UniProt P13726)
[4] = target: TFLBR-FVIIa complex on THP-1 cells (UniProt P13726)
[5] = target: Wild-type TF-FVIIa complex on THP-1 cells (UniProt P13726); remark: listed apart in the source

In the case of “Purified human factor X (natural protein)”, the Km of FX activation by TF-FVIIa on THP-1 cells (Michaelis-Menten kinetics) [1] is reported as 0.134 µM, the Km of FX activation by TF-FVIIa on THP-1 cells (Michaelis-Menten kinetics) [2] is reported as 0.191 µM and the Km of FX activation by TF-FVIIa on THP-1 cells (Michaelis-Menten kinetics) [3] is reported as 0.117 µM. The Km of FX activation by TF-FVIIa on THP-1 cells treated with HgCl2 (100 μM, 5 min) (FVIIa 10 nM, FX 25 to 1000 nM) [4] was 0.223 µM, the Km of FX activation by TF-FVIIa on THP-1 cells treated with control vehicle (FVIIa 10 nM, FX 25 to 1000 nM) [4] was 0.196 µM and the Km of FX activation by TF-FVIIa on THP-1 cells treated with HgCl2 (100 μM, 5 min) (FVIIa 10 nM, FX 25 to 1000 nM) [5] was 0.137 µM. It also gave a Km of FX activation by TF-FVIIa on THP-1 cells treated with control vehicle (FVIIa 10 nM, FX 25 to 1000 nM) [5] of 0.187 µM.
